Tested on: MS2 coat protein
Assay: apparent KD of MS2 coat protein; designed switch direction (-1 OFF switch, 1 ON switch): -1; higher = weaker reporter binding
Method in brief: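 SNAP-549-labelled MS2 coat protein was titrated, doubling from 0.7 or 1.5 nM to 3 µM, over designed RNA switches transcribed on Illumina chips by stalled E. coli RNA polymerase. Runs were done without input, with 200 uM small-molecule ligand, or with an oligonucleotide input. Apparent KD is the per-design median over clusters of curve-fitted normalised fluorescence.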

[1] = Eterna round: R95, input ligand: microRNA oligo, concentration not stated
[2] = input ligand: microRNA oligo, concentration not stated

Row | Sequence | apparent KD of MS2 coat protein [1] [nM] | apparent KD of MS2 coat protein (input ligand: FMN 200 uM) [nM] | apparent KD of MS2 coat protein [2] [nM] | apparent KD of MS2 coat protein (input ligand: none) [nM] | further results
1 | GUUAGUUAAGGAUAUACAGGGAGCCGCGGCGUCUCGCCGCAACAUGAGGAUCACCCAUGUAGAAGGUGGCCAUU [JL ViennaUCT Enbibi mod 2] (puzzle: Exclusion 2) | 101 | – | – | – | –
2 | ACGCAUUGCCUUUGGUAGUGCGUAACAUGAGGAUCACCCAUGUAGGAUAUGGUAGGCUUUGCUUACCAGAAGGACAUUAUAUUC [JL ENG3 1.03] (Eterna round: R96, puzzle: Exclusion NG 3) | – | 69.4 | 22.1 | 21.9 | –
3 | AGGGAGUAAGGAUAUCGGAAAGGACACGAAAGUGACAAAGACGAGAAGGUACAUGAGGAUCACCCAUGUAAAAA [milkweed 24] (Eterna round: R96, puzzle: Exclusion 4) | – | – | 18.2 | – | –
4 | UUUUUCUCAGGAUAUACAUGAGGAUCACCCAUGUAUAUUAAUGAUAAUACAUGGGAAUGUAGAAGGGAGCUCAU [Omei Ex3 Pseudoloop 13] (Eterna round: R97, puzzle: Exclusion 3) | – | 111 | – | 135 | –
5 | UGUACGAUGCGUGCUGACAUGCGUCGUGCAGCAGGUGUUACAUGAGGAUCACCCAUGUCCUCAUUUGCUCGUCUUGU [SL-sv3-2.09 JL mod] (puzzle: Sensor v3, turn-off variant 2) | 185 | – | – | – | apparent KD of MS2 coat protein (Eterna round: R95, input ligand: FMN 200 uM): 379 nM; apparent KD of MS2 coat protein (Eterna round: R95, input ligand: none): 374 nM
6 | CUCGGACAUGAGGAUCACCCAUGUGAGGAUAUGAUGCGAUCGUCGAAAGACGAUAGCAUCAGAAGGUACAAAUG [Fiskers Ex 1 - 22] (Eterna round: R96, puzzle: Exclusion 1) | – | 60.2 | 36.2 | 50.3 | –
7 | GCAUGUUAUGUCAGGAUAUACCUAUGGAUACAUAGGUAGAAGGGACAUGAGGAUCACCCAUGUCCUAACCAUGC [Fiskers BMX 4 - 22] (puzzle: Brourd's mod of Exclusion 4) | 11.4 | – | – | – | –
8 | CCUCAGGCGGAGGAUAUCUAACAACAAUAACAAAGAGAAGGCCGCACAUGAGGAUCACCCAUGUGUAUGGGCCG [Bitierre] (puzzle: Exclusion 6) | 13.1 | – | – | – | –
9 | UUGUUAUAUGUAGGAUAUGCGUGUUGUUAUUAGGCAGAAGGACAUGAGGAUCACCCAUGUAUGUUGUUGUUAUAUAUUAUAUAU [Title] (Eterna round: R96, puzzle: Exclusion NG 1) | – | 56.3 | 28.3 | 58.8 | –
10 | UUAUUUAGUGUGAGGAUAUGCUGGUCCUUGGAUCAGCAGAAGGCACAUGAGGAUCACCCAUGUAAUAUAUUAAU [JL bmx4 3.06] (puzzle: Brourd's mod of Exclusion 4) | 73.1 | – | – | – | –
11 | AAGCAGCGAGGAUAUGCUUGCGCGUGUCCUAGUUGAAAUAAACUUGAGGAUCACCCAAGUAGAAGGCGCAACCC [EX2 #42] (Eterna round: R97, puzzle: Exclusion 2) | – | 197 | – | 41.9 | –
12 | CUAGCGAGUGUAGGAUAUCGGACUGUUUCAGUCUGAGAAGGACAUGAGGAUCACCCAUGUAUUGCUACGUGAGUAGCACGCUAG [JL ENG1 3.00] (Eterna round: R96, puzzle: Exclusion NG 1) | – | 32.9 | 17.5 | 19 | –
13 | GUAGAGUGAGGAUAUACGAGAUCGAUAGAUCGGCGAUCCAAACAUGAGGAUCACCCAUGUAGAAGGCACUCUAC [Mat - Exclusion 2 - Eli Mod - D6] (Eterna round: R97, puzzle: Exclusion 2) | – | 455 | – | 90.4 | –
14 | AACGCUAAAGGAUAUACAUGAGGAUCACCCAUGUUGAGGAAGGUUAGAUGAGGAGUAAGUAGAAGGUUAGACGA [JR_Exclu3_Sub090] (puzzle: Exclusion 3) | 23.7 | – | – | – | –
15 | UGGUAGUGAGGAUAUCCAAUAUAUGACAUGAGGAUCACCCAUGUUUCCACUCGUACCUCCGGAGAAGGCACAUGGU [Ex5 #54] (Eterna round: R97, puzzle: Exclusion 5) | – | 67.6 | – | 61.9 | –
16 | UUUUAACAUGAGGAUCACCCAUGUGAGGAUAUCGAAAUUUAUAUUUAUAUUAAUAUAUCGAGAAGGCACAUUUU [JMF 80] (puzzle: Exclusion 1) | 93.1 | – | – | – | –
17 | CGGAAAUCCUAGGAUAUGCUAGACGAAAGUCUAGCAGAAGGAGGAACAUGAGGAUCACCCAUGUGUCCUAUCCG [Mat - Exclusion 6 - Eli Mod - D16] (Eterna round: R97, puzzle: Exclusion 6) | – | 26 | – | 17.1 | –
18 | GGUUCACGAGGAUAUCGAUUUUAGUACAUGAGGAUCACCCAUGUUGUCCAGGUUUCGAUUCGAGAAGGCGUGAACC [LRO-Ex5-04] (puzzle: Exclusion 5) | 20.8 | – | – | – | –
19 | AUCAUGUUAGGAUAUUACGACGCAGCGGGUAGCCCGUAAAGUAAGAAGGAACAUGAGGAUCACCCAUGUUCAAA [EX4 B.22] (Eterna round: R97, puzzle: Exclusion 4) | – | 32.8 | – | 19.6 | –
20 | CAAGAUUACUGAGGAUAUCCUAGUUUAUCUCAGGGAGAAGGCGGACUCAACAUGAGGAUCACCCAUGUAAGACGGGUACUAGAG [Ex NG1 #15] (Eterna round: R96, puzzle: Exclusion NG 1) | – | 84.8 | 68.4 | 43.2 | –
21 | UUAUACGUUGAGGAUAUGUCAUUUAGUAUAGUUACAGAAGGCGAUACAUGAGGAUCACCCAUGUUUAUGGGCAU [Ex-6 Malc#2] (puzzle: Exclusion 6) | 166 | – | – | – | –
22 | ACAUGUUAUCCAUGAUAUCACAUGAGGAUCACCCAUGUUAUGGCGAUUUUGAGGUGUAAGUUUUGUGCUCGUCUUAU [JR_STOV1_Sub057] (Eterna round: R97, puzzle: Sensor, turn-off variant 1) | – | 80.1 | – | 89.4 | –
23 | CAGUACUGAGGAUAUACAUGAGGAUCACCCAUGUGUUCCAGGUAGGAAACUAGCAAAAGUAGAAGGCAGUACUG [salish99_ex3_r3_078] (Eterna round: R96, puzzle: Exclusion 3) | – | – | 17.5 | – | –
24 | AGCUUUUUGCUCGUCUUAUACAUGAGGAUCACCCAUGUAUUGGACCACAUCGAUAGAUGUGGACCAAGAAGCAUGGU [Omdei Mir OFFv1 C3] (Eterna round: R97, puzzle: Sensor, turn-off variant 1) | – | 46.8 | – | 45.2 | –
25 | CUGUUUUUCGCAGGAUAUGCUUCUCCUUUAUUAGCAGAAGGGCGUUAAACAUGAGGAUCACCCAUGUAUGGUAAUGACAUUUUC [JR_ExcNG1_Sub061] (Eterna round: R96, puzzle: Exclusion NG 1) | – | 98.3 | 18.2 | 24.3 | –
26 | UAUUAAACAAGCAGGUCCCACAUGAGGAUCACCCAUGUGCUCGUCUUAUAAGGUACUGUGAUGAAAGUUACGGUACC [Elimod 17 - Jieux - Sensor, turn-off variant 1] (Eterna round: R97, puzzle: Sensor, turn-off variant 1) | – | 36.4 | – | 46.2 | –
27 | AGGUGCUUCUGGAGACAUGAGGAUCACCCAUGUUGAGUUAGCGAGGAUAUCGGUAAGGCAUGUGAUGAGAAGGCGCAAACCGAU [Ex NG3 #49] (Eterna round: R96, puzzle: Exclusion NG 3) | – | 50.6 | 35.5 | 49.5 | –
